Drawing on patent publication US20170291955A1, this text covers Kd for one molecule.

The target of assay [1] is KI_II (mouse; human) (UniProt P70424). As to the kind of experiment: SPR (ProteOn XPR36), variant captured by anti-Her2 polyclonal antibody, 39S injected; apparent affinity.
In the next assay the target is KO_I (mouse; human) (UniProt P70424). The description is as above.
Assay [2] deals with KI_II (mouse; human) (UniProt P70424). The experiment in a line: SPR (ProteOn), variant captured, 39S injected; apparent affinity.

B1: 39S antibody (antibody, V domains shown)
VH: EVQLVESGGGLVKPGGSLRLSCAASGFTFSSYSMSWVRQAPGKGLEWVSSISSSSSYIYYADSVKGRFTISRDNAKNSLYLQMNSLRAEDTAVYYCARGGDAYNYYYFDYWGQGTLVTVSS
VL: DIVMTQTPLSLSVTPGQPASISCKSSQSVFFRSNNKNILAWYLQKPGQPPQLLIYWASSRESGVPDRFSGSGSGTDFTLKISRVEAEDVGVYYCQQYFGSPFTFGPGTKVDIK
On to B1, for which the Kd came to 0.163 nM with KI_II (mouse; human) [1], 0.095 nM with KO_I (mouse; human) and 0.168 nM in the assay with KI_II (mouse; human) [2].
